Results as given in patent publication US20250313634A1 (WUXI BIOLOGICS SHANGHAI, published 2025).

Key:
Assay in all cases: capture ELISA on coated 1.14.4; relative to silent alanine substitutions
[1] = target: T1, hPD-L1_ECD.His point mutant N183A (human, UniProt Q9NZQ7 19-238)
T1 construct: extracellular domain
How it was run: (§1)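 Capture ELISA in which supernatant containing quantified PD-L1 alanine mutant was detected with HRP anti-His antibody. Absorbance was normalized to the average of control mutants. Epitope residues were called at binding fold change <0.55.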

[2] = target: T2, hPD-L1_ECD.His point mutant T181A (human, UniProt Q9NZQ7 19-238)
T2 construct: extracellular domain
T2 sequence (Q9NZQ7 19-238 T181A): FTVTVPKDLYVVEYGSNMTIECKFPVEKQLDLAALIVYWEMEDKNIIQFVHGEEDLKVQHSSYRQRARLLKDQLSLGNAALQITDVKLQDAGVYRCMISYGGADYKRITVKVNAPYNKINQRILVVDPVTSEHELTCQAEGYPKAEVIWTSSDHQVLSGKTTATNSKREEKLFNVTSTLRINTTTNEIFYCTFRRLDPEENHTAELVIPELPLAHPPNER
How it was run: as §1

[3] = target: T3, hPD-L1_ECD.His point mutant T20A (human, UniProt Q9NZQ7 19-238)
T3 construct: extracellular domain
T3 sequence (Q9NZQ7 19-238 T20A): as the sequence (Q9NZQ7 19-238 T181A) above, with T2A, A163T counted along it
How it was run: as §1

[4] = target: T4, hPD-L1_ECD.His point mutant V174A (human, UniProt Q9NZQ7 19-238)
T4 construct: extracellular domain
T4 sequence (Q9NZQ7 19-238 V174A): as the sequence (Q9NZQ7 19-238 T181A) above, with V156A, A163T counted along it
How it was run: as §1

[5] = target: T5, hPD-L1_ECD.His point mutant D73A (human, UniProt Q9NZQ7 19-238)
T5 construct: extracellular domain
T5 sequence (Q9NZQ7 19-238 D73A): as the sequence (Q9NZQ7 19-238 T181A) above, with D55A, A163T counted along it
How it was run: as §1

[6] = target: T6, hPD-L1_ECD.His point mutant T180A (human, UniProt Q9NZQ7 19-238)
T6 construct: extracellular domain
T6 sequence (Q9NZQ7 19-238 T180A): as the sequence (Q9NZQ7 19-238 T181A) above, with T162A, A163T counted along it
How it was run: as §1

[7] = target: T7, hPD-L1_ECD.His point mutant A51G (human, UniProt Q9NZQ7 19-238)
T7 construct: extracellular domain
T7 sequence (Q9NZQ7 19-238 A51G): as the sequence (Q9NZQ7 19-238 T181A) above, with A33G, A163T counted along it
How it was run: as §1

[8] = target: T8, hPD-L1_ECD.His point mutant R113A (human, UniProt Q9NZQ7 19-238)
T8 construct: extracellular domain
T8 sequence (Q9NZQ7 19-238 R113A): as the sequence (Q9NZQ7 19-238 T181A) above, with R95A, A163T counted along it
How it was run: as §1

[9] = target: T9, hPD-L1_ECD.His point mutant P161A (human, UniProt Q9NZQ7 19-238)
T9 construct: extracellular domain
T9 sequence (Q9NZQ7 19-238 P161A): as the sequence (Q9NZQ7 19-238 T181A) above, with P143A, A163T counted along it
How it was run: as §1

[10] = target: T10, hPD-L1_ECD.His point mutant E60A (human, UniProt Q9NZQ7 19-238)
T10 construct: extracellular domain
T10 sequence (Q9NZQ7 19-238 E60A): as the sequence (Q9NZQ7 19-238 T181A) above, with E42A, A163T counted along it
How it was run: as §1

[11] = target: T11, hPD-L1_ECD.His point mutant V68A (human, UniProt Q9NZQ7 19-238)
T11 construct: extracellular domain
T11 sequence (Q9NZQ7 19-238 V68A): as the sequence (Q9NZQ7 19-238 T181A) above, with V50A, A163T counted along it
How it was run: as §1

[12] = target: T12, hPD-L1_ECD.His point mutant A232G (human, UniProt Q9NZQ7 19-238)
T12 construct: extracellular domain
T12 sequence (Q9NZQ7 19-238 A232G): as the sequence (Q9NZQ7 19-238 T181A) above, with A163T, A214G counted along it
How it was run: as §1

[13] = target: T13, hPD-L1_ECD.His point mutant V76A (human, UniProt Q9NZQ7 19-238)
T13 construct: extracellular domain
T13 sequence (Q9NZQ7 19-238 V76A): as the sequence (Q9NZQ7 19-238 T181A) above, with V58A, A163T counted along it
How it was run: as §1

[14] = target: T14, hPD-L1_ECD.His point mutant T201A (human, UniProt Q9NZQ7 19-238)
T14 construct: extracellular domain
T14 sequence (Q9NZQ7 19-238 T201A): as the sequence (Q9NZQ7 19-238 T181A) above, with A163T, T183A counted along it
How it was run: as §1

[15] = target: T15, hPD-L1_ECD.His point mutant N35A (human, UniProt Q9NZQ7 19-238)
T15 construct: extracellular domain
T15 sequence (Q9NZQ7 19-238 N35A): as the sequence (Q9NZQ7 19-238 T181A) above, with N17A, A163T counted along it
How it was run: as §1

[16] = target: T16, hPD-L1_ECD.His point mutant Q107A (human, UniProt Q9NZQ7 19-238)
T16 construct: extracellular domain
T16 sequence (Q9NZQ7 19-238 Q107A): as the sequence (Q9NZQ7 19-238 T181A) above, with Q89A, A163T counted along it
How it was run: as §1

[17] = target: T17, hPD-L1_ECD.His point mutant A109G (human, UniProt Q9NZQ7 19-238)
T17 construct: extracellular domain
T17 sequence (Q9NZQ7 19-238 A109G): as the sequence (Q9NZQ7 19-238 T181A) above, with A91G, A163T counted along it
How it was run: as §1

[18] = target: T18, hPD-L1_ECD.His point mutant V21A (human, UniProt Q9NZQ7 19-238)
T18 construct: extracellular domain
T18 sequence (Q9NZQ7 19-238 V21A): as the sequence (Q9NZQ7 19-238 T181A) above, with V3A, A163T counted along it
How it was run: as §1

[19] = target: T19, hPD-L1_ECD.His point mutant K105A (human, UniProt Q9NZQ7 19-238)
T19 construct: extracellular domain
T19 sequence (Q9NZQ7 19-238 K105A): as the sequence (Q9NZQ7 19-238 T181A) above, with K87A, A163T counted along it
How it was run: as §1

[20] = target: T20, hPD-L1_ECD.His point mutant E39A (human, UniProt Q9NZQ7 19-238)
T20 construct: extracellular domain
T20 sequence (Q9NZQ7 19-238 E39A): as the sequence (Q9NZQ7 19-238 T181A) above, with E21A, A163T counted along it
How it was run: as §1

[21] = target: T21, hPD-L1_ECD.His point mutant L231A (human, UniProt Q9NZQ7 19-238)
T21 construct: extracellular domain
T21 sequence (Q9NZQ7 19-238 L231A): as the sequence (Q9NZQ7 19-238 T181A) above, with A163T, L213A counted along it
How it was run: as §1

[22] = target: T22, hPD-L1_ECD.His point mutant T102A (human, UniProt Q9NZQ7 19-238)
T22 construct: extracellular domain
T22 sequence (Q9NZQ7 19-238 T102A): as the sequence (Q9NZQ7 19-238 T181A) above, with T84A, A163T counted along it
How it was run: as §1

[23] = target: T23, hPD-L1_ECD.His point mutant F191A (human, UniProt Q9NZQ7 19-238)
T23 construct: extracellular domain
T23 sequence (Q9NZQ7 19-238 F191A): as the sequence (Q9NZQ7 19-238 T181A) above, with A163T, F173A counted along it
How it was run: as §1

[24] = target: T24, hPD-L1_ECD.His point mutant P24A (human, UniProt Q9NZQ7 19-238)
T24 construct: extracellular domain
T24 sequence (Q9NZQ7 19-238 P24A): as the sequence (Q9NZQ7 19-238 T181A) above, with P6A, A163T counted along it
How it was run: as §1

[25] = target: T25, hPD-L1_ECD.His point mutant K89A (human, UniProt Q9NZQ7 19-238)
T25 construct: extracellular domain
T25 sequence (Q9NZQ7 19-238 K89A): as the sequence (Q9NZQ7 19-238 T181A) above, with K71A, A163T counted along it
How it was run: as §1

[26] = target: T26, hPD-L1_ECD.His point mutant I54A (human, UniProt Q9NZQ7 19-238)
T26 construct: extracellular domain
T26 sequence (Q9NZQ7 19-238 I54A): as the sequence (Q9NZQ7 19-238 T181A) above, with I36A, A163T counted along it
How it was run: as §1

T1 sequence (Q9NZQ7 19-238 N183A): as the sequence (Q9NZQ7 19-238 T181A) above, with A163T, N165A counted along it

B1: 1.14.4 (antibody, V domains shown)
VH: EVQLLESGGGLVQPGGSLRLSCAASGFTFSSYAMSWVRQAPGKGLEWVSGISGSGGFTYYADSVKGRFTISRDNSKNTLYLQMNSLRAEDTAVYYCAKPPRGYNYGPFDYWGQGTLVTVSS
VL: SYVLTQPPSVSVAPGQTARITCGGNNIGSKSVHWYQQKPGQAPVLVVYDDSDRPSGIPERFSGSNSGNTATLTISRVEAGDEADYYCQVWDSSSDHVVFGGGTKLTVL
notes: Fully human monoclonal antibody with a human constant region of IgG4 isotype
- fold change [1]: 0.944 fold
- fold change [2]: 0.947 fold
- fold change [3]: 0.974 fold
- fold change [4]: 0.983 fold
- fold change [5]: 0.988 fold
- fold change [6]: 1 fold
- fold change [7]: 1.03 fold
- fold change [8]: 0.161 fold
- fold change [9]: 0.332 fold
- fold change [10]: 0.547 fold
- fold change [11]: 0.707 fold
- fold change [12]: 0.756 fold
- fold change [13]: 0.76 fold
- fold change [14]: 0.781 fold
- fold change [15]: 0.788 fold
- fold change [16]: 0.792 fold
- fold change [17]: 0.797 fold
- fold change [18]: 0.803 fold
- fold change [19]: 0.816 fold
- fold change [20]: 0.831 fold
- fold change [21]: 0.838 fold
- fold change [22]: 0.887 fold
- fold change [23]: 0.897 fold
- fold change [24]: 0.907 fold
- fold change [25]: 0.913 fold
- fold change [26]: 0.918 fold
